In a protein production outcome set (Wang et al. 2014):

experiment: label from the status in PepcDB records
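Note: failed if final PepcDB status was selected cloned or expressed and not failed if soluble or beyond.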

Sequence	protein production
GLGFMALDEDLRIIYVNSGCLRHVRRSRDELLGRVVTEVLPETQGSYFDALCRKVLATGREQQTRVDSLYSPGMTIEVTAAADSGALVVHFRDVTAE	not failed
GMIDGHHHLTQSFAKSLAYGEPSEIFKRIWVPLESNLNEQFVYLCTKLAALESLRGGFTTVCDAGTRSEIGMQLMVRALEETGLRCVLSLICNDGRAHSTLELRQNILENAQIFIKSYKQHKNVHPSLAISIPEVASDDMLYEVSKLCANSNIIFQVHVNEHLASVERSIIQQGMRPLEHLAKVGALGPQTLIAHATMLTPSELLLLQRTDTAVSYNPVASQWKGNAVASAHLMHELNIRFALGTDATRADGFRLLDAAEATQKLIFGIPTGDCSTGGGWMWLDHATTAGAEAVGLSQL	failed
GQPSNDKKNVLPDWAFGGFERPQGANPVISPIENTKFYCPMTQDYVAWESNDTFNPAATLHDGKIVVLYRAEDKSGVGIGHRTSRLGYATSSDGIHFKREKTPVFYPDNDTQKKLEWPGGCEDPRIAVTAEGLYVMTYTQWNRHIPRLAIATSRNLKDWTKHGPAFAKAYDGKFFNLGCKSGSILTEVVNGKQVIKKIDGKYFMYWGEEHVFAATSEDLVNWTPYVNTDGSLRKLFSPRDGHFDSQLTECGPPAIYTPKGIVLLYNGKNSASRGDKRYTANVYAAGQALFDANDPTRFITRLDEPFFRPMDSFEKSGQYVDGTVFIEGMVYYKDKWYLYYGCADSKVGMAIYNPKKPAAADPLP	not failed
GQTFAGVIRGVQSYGFFVQIEALQVEGLVHVSSPKDDWYEYRSRQQRLIGRKNRRQFGLGDRVEVEIRNVDYYRQQIDLGVLPLP	failed
GRARVKVEGVFYNPRMRFCRDLDMLVFATMDSKEYFDALSASGIRGIRAALEAGKKAVFNDVSPKAVKVIEENLRENGVSGEVINGDAAAVMRQRAFEHIDIDPFGSPAPFMDSACFSAKRYLSVTATDTAALCGSATNSGLKKYGAFAVKTDVYHEVGLRMLIGFVVREATKYEKALFPLISWVREHYYRVHFKIKKSTAMSAKVYEKMGYLAYCSTCLRKKVLGMGEGAERCECGGKFSLIGPIWLGELKQRDFAEKVAEKAEGKLRAFLEKILAEIDAPTAYSLPALAKIHSLTLPPTDVVVEELKKLGYEASRTHYCGFCVKTDADRDVVVKILRSRK	failed
GRGAFGVVCKAKWRAKDVAIKQIESESERKAFIVELRQLSRVNHPNIVKLYGACLNPVCLVMEYAEGGSLYNVLHGAEPLPYYTAAHAMSWCLQCSQGVAYLHSMQPKALIHRDLKPPNLLLVAGGTVLKICDFGTACDIQTHMTNNKGSAAWMAPEVFEGSNYSEKCDVFSWGIILWEVITRRKPFDEIGGPAFRIMWAVHNGTRPPLIKNLPKPIESLMTRCWSKDPSQRPSMEEIVKIMTHLMRYFPGADEPLQYPCQYSDEGQSNSATSTGSFMDIASTNTSNKSDTNMEQVPATNDTIKRLESKLLKNQAKQQ	failed
GRKYLVNFSDIYYIESVDKKTFVYLADEIYQTDLRLYQLLHDLQHDGFVQISKSCLLNINVLENIRPLFNSRMEATLLNGERVIVNRRYLPDVKEALKGIQ	failed
GSAYTPLSEDESHRIFELVKEIDTSNQDASKSEKILQQRLDLLHQVRLRYFTPREVARLMSFPENFEFPPETTNRQKYRLLGNSINVKVVGELIKLLTIK	failed
GSSGSSGHADEVWPGLYLGDQDMANNRRELRRLGITHVLNASHSRWRGTPEAYEGLGIRYLGVEAHDSPAFDMSIHFQTAADFIHRALSQPGGKILVHCAVGVSRSATLVLAYLMLYHHLTLVEAIKKVKDHRGIIPNRGFLRQLLALDRRLRQGLEA	not failed
GTGLHCLSIERDLMKKFHLKDAFIIPTPVNNYHASLGKAAAQYLETHLQQGDLLGIGWGETISKMLENIHFETSINLSIVTLTGGVNHYLSRKQNYLHYMQGDLHIIPTPFLASTTEMAQSILSEPSVKDMLHVASLAHTAIVGIGGLSQDATIVKEEKLTLREMTYIRSQNGAGDILGQFYNTNGDLLELSHHNRLIGTPLSILRNMNHVVGVAGGTEKIDAIYGALKGKFIHTLITDEETALSLLRKDGDC	failed
GTLQDGAVDWGVRRTFREYVTGDIAHGEWALTAGAQDGGALFRFPGGEGTYEDGDLNAAFRGTVRFTGAHGLDLSLGNVRTVVEDGRGTLYADVTSPDVKEAKVPLVTFTAGEPKPAGGLVKVTEAPAKLTARGAKAFGGMYRAGTEMDPVSLAVAL	failed
GTVSATSPNKCKRPMNAFMLFAKKYRVEYTQMYPGKDNRAISVILGDRWKKMKNEERRMYTLEAKALAEEQKRLNPDCWK	not failed
GVKCEPFEALTVDVEDAHQGGVMEELGRRKGDLQDMQPDGRGRTRLEYIIPARGLIGFQNEFLTLTRGTGLMSHIFHEYAPLREGSIGERRNGVLISQDNGDAVAYALWKLQDRGRMFVSPGEPLYEGMI	failed
GYNRRFDAGFVAARAAVASGELGALHTVRSTTLDPAPPPPAYVAASGGIFRDCSVHDFDIIRWVTGREVVEVYATGGNRGADYIAAAGDADTTAAVLTLDDGTLAVVSNSRHNARGHDVRMELHGFRDSIAVGLEDRLPLRSVEPGTSFPAGTPHDFFMDRFAAAYRAELTAFTEVVAGRRPSPCTVADALEAGWIAEACTLSLHSHRPVTVEEVRRQS	failed
HARPAGQLKVHSMPGVGQHYVIDAIARYRRNHPDVAFDLTMTHRVPDLLEEGFDVSIVLASELADSGFVSQRLGITYSIVCASPEYVKTFGMAHKPADLLNHACLRLVSPVFP	failed
HFNVLADTPSGLVPLHLRSPQVPAAQQMLNFPEKNKEKPVDLQNFGLRTDIYSKKTLAKSKGASAGREWTEQETLLLLEALEMYKDDWNKVSEHVGSRTQDECILHFLRLPIEDPYLENSDASLGPLAYQPVPFSQSGNPVMSTVAFLASVVDPRVASAAAKAALEEFSRVREEVPLELVEAHVKKVQEAARASGKVDPTYGLESSCIAGTGPDEPEKLEGAEEEKMEADPDGQQPEKAENKVENETDEGDKAQDGENEKNSEKEQDSEVSEDTKSEEKETEENKELTDTCKERESDTGKKKVEHEISEGNVATAAAAALASAATKAKHLAAVEERKIKSLVALLVETQMKKLEIKLRHFEELETIMDREKEALEQQRQQLLTERQNFHMEQLKYAELRARQQMEQQQHGQNPQQAHQHSGGPGLAPLGAAGHPGMMPHQQPPPYPLMHHQMPPPHPPQPGQIPGPGSMMPGQHMPGRMIPTVAANIHPSGSGPTPPGMPPMPGNILGPRVPLTAPNGMYPPPPQQQPPPPPPADGVPPPPAPGPPASAAP	not failed

Sequence	protein production
HITLNYLSKTLGMHQTINVILPEDKSYFDTNENAKPLKTMLLLHGLSSDTSSYMRYTSIERYANTHQLAVVMPNADHSFYSNMAYGHSYYDYILEVYDYVHQILPLSKKREDNFIAGHSMGGYGAIKFALTQSYRFSKAAMLSAPYDVSMIGQYQWYDFTPEAIVGNTQHVAGTSFDPYYLVEQAIDNGQALPQLYITCGTEDELYQGNIDFVNYLDEKGIPYQFKKAPGNHDYAFWDKAIEDVIDRF	failed
HPMCKEHEDEKINIYCLTCEVPTCSMCKVFGIHKACEVAPLQSVFQGQKTE	not failed
HQQQRSVMTEEYKVPDGMVGFIIGRGGEQISRIQQESGCKIQIAPDSGGLPERSCMLTGTPESVQSAKRLLDQIVEKGR	not failed
HTETGNIWTHLLGFVLFLFLGILTMLRPNMYFMAPLQEKVVFGMFFLGAVLCLSFSWLFHTVYCHSEKVSRTFSKLDYSGIALLIMGSFVPWLYYSFYCSPQPRLIYLSIVCVLGISAIIVAQWDRFATPKHRQTRAGVFLGLGLSGVVPTMHFTIAEGFVKATTVGQMGWFFLMAVMYITGAGLYAARIPERFFPGKFDIWFQSHQIFHVLVVAAAFVHFYGVSNLQEFRYGLEGGCTDDTLL	failed
HYGEEPELVPSYTIFFSGCNFRCVFCQNWDISQFRVGVELLPEYLALKIERAYRFGARNVNFVGGEPTPNLPYILETLRYVNVPIPVVWNSNMYMSEEAMKLLDGIVD	failed
IAKNNYKELIQNIIEESYTDSQFTLSVLSEKLDLSSGYLSIMFKKNFGIPFQDYLLQKRMEKAKLLLLTTELKNYEIAEQVGFEDVNYFITKFKKYYQITPKQYREMVLKNE	failed
IARLDWSATPLGESGHWPQSLRTAVDIVIHSPMPMLLLWGAELTQIYNDGFALLAGNKHPSAFGHPAHLTWPELMDFTDPIYRAVLNGQVRTFSEQRFSLQRTNGSEYDLWLDLTYSPIRNERGDVAGILVTAIETNERRRIALELQQR	failed
IEGLFIFDRNQKCVYANHIALNLFGYTLEEVHSKSILDFIALGFRNKVKRFSQNRDQPPYEVLGIKNDGSLFPIMIRGKAIELG	failed
IFRVLDDVDTAVFNRVGTLTDGEMTVETVTADKGEDPELVLRVAGALAMESHHAISKALVKASREARDTGAGGEDVPHWIEVGNVEITEAGSFQATIELPLIKPSGEKIMRTTEALLWRPRSMTEVREHLSPRLVAAATSGGAPLIVRWKGKDRGVITLSDHVRSDSSDAIIAIEEQGIETMMLSRDTYPVARRYADSLGITHVLAGIAPGKKAQVVRAVHTRGSTVAMIGDESVMDCLKVADVGVLMGVDRPSDLRDDSDDPAADVVVMREEVMSVPTLFKLARRYAKLVNGNIALAWIYNGVAM	failed
IHYAGKILQERLVNPPSLMELAREIGINDHKLKVGFRQVFKTTVFGYLHDQRIERSRQLLESGEMTVTGAASAVGFANRGHFAAAFRRKFGINPSLYARQRKL	failed
IKSISKDYFDYLQTESKFIPLENETIEFYSPIVDYFGDSISVNISFSGDRYKLTDHGETLWNMEQLGIDLTSNKKQKKYQLLNNIVQNYSLVIENKHINFYTNRINLSQAIHDYVLAISEISYLGILKKENIKSLFKDEVMQYFLSNRKIYPNIFPEFKVEGKSKLIHSFEAVFPGEATEYVKTIKRIDKNNAKNVLFDWNDVEIHRNKNFDSNARLNIITEQQDDISEAVSTMLSQYNVEVFSFENKKQLEEKF	failed
IKVGKAKLLNQVLVNLPTSISQQTIAETDGDSAGSDSFPVGRTHHRWYLCHFGQSLIHVIQVVIGYFIMLAVMSYNTWIFLGVVLGSAVGYYLAYPLLSTA	not failed
ILFSVVIGSFTPAHPIASETNPKVENAKDAPEIEPFSEQAVEELHRQKKPLFIYFSADWCLTCKVNEKMAIDRDSTRQAFRQKGIVTLHGDWTNGDPEITHFLSKMHRSGIPLYLYYPADGEIQI	failed
IMAKTAKVAVSQIVEHPALDATRQGLLDGLKAKGYEEGKNLEFDYKTAQGNPAIAVQIARQFVGENPDVLVGIATPTAQALVSATKTIPIVFTAVTDPVGAKLVKQLEQPGKNVTGLSDLSPVEQHVELIKEILPNVKSIGVVYNPGEANAVSLMELLKLSAAKHGIKLVEATALKSADVQSATQAIAEKSDVIYALIDNTVASAIEGMIVAANQAKTPVFGAATSYVERGAIASLGFDYYQIGVQTADYVAAILEGKEPGSLDVQVAKGSDLVINKTAAEQLGITIPEAVLARATSTK	not failed
INVRLKFLNDTEELAVARPEDTVGTLKSKYFPGQESQMKLIYQGRLLQDPARTLSSLNITNNCVIHCHRSPPGAAVSGPSAS	not failed
IPELKDHLRIFRPRKLTLKGYRQHWVVFKETTLSYYKSQDEAPGDPIQQLNLKGCEVVPDVNVSGQKFCIKLLVPSPEGMSEIYLRCQDEQQYARWMAGCRLASKGRTMADSSYTSEVQAILAFLSLQRT	not failed
